Data: patent US20100159560

Columns and labels:
[1] = target: T1, protransglutaminase of Streptoverticillium mobaraense IFO13819 (pro-MTG) (UniProt P81453)
T1 sequence: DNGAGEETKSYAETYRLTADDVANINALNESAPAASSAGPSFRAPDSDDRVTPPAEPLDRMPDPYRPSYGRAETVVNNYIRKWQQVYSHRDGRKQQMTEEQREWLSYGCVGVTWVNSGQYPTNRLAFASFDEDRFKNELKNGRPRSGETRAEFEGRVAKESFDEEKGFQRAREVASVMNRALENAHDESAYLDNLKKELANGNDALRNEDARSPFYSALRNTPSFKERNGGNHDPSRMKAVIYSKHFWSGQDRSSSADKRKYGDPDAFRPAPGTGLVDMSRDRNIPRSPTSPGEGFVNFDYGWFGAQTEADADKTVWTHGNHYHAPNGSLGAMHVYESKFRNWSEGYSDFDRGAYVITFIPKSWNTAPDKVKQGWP

[2] = target: T2, Streptomyces subtilisin inhibitor (SSI) derived from actinomycetes (UniProt P01006)
T2 sequence: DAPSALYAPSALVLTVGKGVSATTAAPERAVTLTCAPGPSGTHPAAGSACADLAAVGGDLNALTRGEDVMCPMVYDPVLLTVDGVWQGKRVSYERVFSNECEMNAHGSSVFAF

Row | Substance | conversion of pro-MTG to mature MTG (SDS-PAGE time course; TG activity by the hydroxamate method), substrate:enzyme = 200:1 [1] | relative activity (Gly-Pro-Ser-Phe-Arg-Ala-Pro-Asp-Ser cleavage activity, absence of compounds = 100%) [2] | amount of protease needed to convert pro-MTG to active MTG (TG activity by the hydroxamate method, MTG protein by reverse phase chromatography) [1] | cleavage points (HPLC separation and sequencing of peptide fragments) [1] | cleavage points (HPLC separation and sequencing of peptide fragments) (insulin B) | amount of protease needed to convert pro-MTG to active MTG (TG activity by the hydroxamate method) [1]
1 | neutral metalloprotease SGMP II from Streptomyces griseus | pro-MTGs were converted to the mature forms, and the produced MTGs were not reduced even after a long-term reaction |  |  |  |  | 
2 | neutral metalloprotease SVP70 from Streptoverticillium mobaraense IFO13819 | pro-MTGs were converted to the mature forms, and the produced MTGs were not reduced even after a long-term reaction | underwent strong inhibitory action | SVP could convert pro-MTG to active MTG with an amount as small as 1/500 of the substrate | cleaved before (at N-terminal side of) especially Phe, often Leu, sometimes Tyr, Trp, Ile, Val | cleaved before (at N-terminal side of) especially Phe, often Leu, sometimes Tyr, Trp, Ile, Val | 
3 | serine protease SAM-P45 (Streptomyces albogriseolus) |  |  | when SAM-P45 was added at an amount of 1/10 of the substrate, the conversion into the active MTG was observed, but a decrease in the amount and the activity of MTG-protein was observed |  |  | generated only insufficient transglutaminase activity even at an amount of 1/50 of the substrate, and that the complete conversion to the active form was not observed
